The chains are these.
T1: EsCas13d, nuclease-dead (Eubacterium siraeum, UniProt B0MS50, R295A;H300A;R849A;H854A)
T1 sequence: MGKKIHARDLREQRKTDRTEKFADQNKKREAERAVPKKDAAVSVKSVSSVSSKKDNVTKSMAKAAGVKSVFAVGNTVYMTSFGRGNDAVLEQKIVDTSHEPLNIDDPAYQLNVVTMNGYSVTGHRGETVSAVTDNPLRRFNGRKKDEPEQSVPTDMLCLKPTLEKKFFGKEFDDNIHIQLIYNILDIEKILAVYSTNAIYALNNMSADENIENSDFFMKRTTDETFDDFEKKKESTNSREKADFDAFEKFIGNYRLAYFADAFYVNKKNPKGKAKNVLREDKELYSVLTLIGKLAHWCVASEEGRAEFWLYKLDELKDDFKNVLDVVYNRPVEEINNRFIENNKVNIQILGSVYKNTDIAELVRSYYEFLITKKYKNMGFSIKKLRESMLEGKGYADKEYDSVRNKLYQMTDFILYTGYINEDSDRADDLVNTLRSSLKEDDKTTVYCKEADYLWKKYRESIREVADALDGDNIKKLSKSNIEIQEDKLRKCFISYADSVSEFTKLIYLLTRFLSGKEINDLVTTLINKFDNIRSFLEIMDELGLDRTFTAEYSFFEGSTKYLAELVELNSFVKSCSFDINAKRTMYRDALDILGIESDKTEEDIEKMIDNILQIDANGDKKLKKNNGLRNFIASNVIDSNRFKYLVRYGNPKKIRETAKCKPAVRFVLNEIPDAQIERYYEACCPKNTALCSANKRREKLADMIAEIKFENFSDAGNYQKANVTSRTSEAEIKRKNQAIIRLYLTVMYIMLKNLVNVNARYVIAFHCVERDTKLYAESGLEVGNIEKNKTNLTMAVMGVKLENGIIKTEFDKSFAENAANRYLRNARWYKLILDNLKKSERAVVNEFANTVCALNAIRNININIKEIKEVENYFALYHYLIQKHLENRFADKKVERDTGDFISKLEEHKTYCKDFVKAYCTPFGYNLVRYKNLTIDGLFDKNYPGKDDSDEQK

B1: target 1 insG 3' of 9,insA 3' of 4 (mixed)
RNA 1: CACCCGUGCAAAAAUGCAGGGGUCUAAAACUGAGCGGAUAACCUCUCUAUGG
RNA 2: GGGAAUGGAUCCACAUCUACGAAUUCGUACCAUAGAGAGGUUAGUCCGCAUCACCGAGAUCGGAAGAGCACACGU
B2: target 1 insU 3' of 21,insG 3' of 1 (mixed)
RNA 1: CACCCGUGCAAAAAUGCAGGGGUCUAAAACUGAGCGGAUAACCUCUCUAUGG
RNA 2: GGGAAUGGAUCCACAUCUACGAAUUCGUACCUAUAGAGAGGUUAUCCGCUCAGCCGAGAUCGGAAGAGCACACGU
B3: target 1 U3A,U8G (mixed)
RNA 1: CACCCGUGCAAAAAUGCAGGGGUCUAAAACUGAGCGGAUAACCUCUCUAUGG
RNA 2: GGGAAUGGAUCCACAUCUACGAAUUCGUACCAUAGAGAGGUUAGCCGCACACCGAGAUCGGAAGAGCACACGU
B4: target 3 insG 3' of 7,insG 3' of 6 (mixed)
RNA 1: CACCCGUGCAAAAUUGCAGGGGUCUAAAACGACCUGAAUAUUUCAGAUCAAA
RNA 2: GGGAAUGGAUCCACAUCUACGAAUUCGUUUUUGAUCUGAAAUAUUGCGAGGUCUGCAGAUCGGAAGAGCACACGU
B5: target 3 A5G,U8C (mixed)
RNA 1: CACCCGUGCAAAAUUGCAGGGGUCUAAAACGACCUGAAUAUUUCAGAUCAAA
RNA 2: GGGAAUGGAUCCACAUCUACGAAUUCGUUUUUGAUCUGAAAUACUCGGGUCUGCAGAUCGGAAGAGCACACGU
B6: target 3 A5U,U22A (mixed)
RNA 1: CACCCGUGCAAAAUUGCAGGGGUCUAAAACGACCUGAAUAUUUCAGAUCAAA
RNA 2: GGGAAUGGAUCCACAUCUACGAAUUCGUUAUUGAUCUGAAAUAUUCUGGUCUGCAGAUCGGAAGAGCACACGU
B7: target 3 insA 3' of 21,insA 3' of 3 (mixed)
RNA 1: CACCCGUGCAAAAUUGCAGGGGUCUAAAACGACCUGAAUAUUUCAGAUCAAA
RNA 2: GGGAAUGGAUCCACAUCUACGAAUUCGUUUUAUGAUCUGAAAUAUUCAGGAUCUGCAGAUCGGAAGAGCACACGU
B8: target 3 insA 3' of 7,insU 3' of 6 (mixed)
RNA 1: CACCCGUGCAAAAUUGCAGGGGUCUAAAACGACCUGAAUAUUUCAGAUCAAA
RNA 2: GGGAAUGGAUCCACAUCUACGAAUUCGUUUUUGAUCUGAAAUAUUACUAGGUCUGCAGAUCGGAAGAGCACACGU
B9: target 3 insU 3' of 5,insC 3' of 4 (mixed)
RNA 1: CACCCGUGCAAAAUUGCAGGGGUCUAAAACGACCUGAAUAUUUCAGAUCAAA
RNA 2: GGGAAUGGAUCCACAUCUACGAAUUCGUUUUUGAUCUGAAAUAUUCAUGCGUCUGCAGAUCGGAAGAGCACACGU
B10: target 3 insA 3' of 2,insA 3' of 2 (mixed)
RNA 1: CACCCGUGCAAAAUUGCAGGGGUCUAAAACGACCUGAAUAUUUCAGAUCAAA
RNA 2: GGGAAUGGAUCCACAUCUACGAAUUCGUUUUUGAUCUGAAAUAUUCAGGUAACUGCAGAUCGGAAGAGCACACGU
B11: target 3 del5,del6 (mixed)
RNA 1: CACCCGUGCAAAAUUGCAGGGGUCUAAAACGACCUGAAUAUUUCAGAUCAAA
RNA 2: GGGAAUGGAUCCACAUCUACGAAUUCGUUUUUGAUCUGAAAUAUUGGUCUGCAGAUCGGAAGAGCACACGU
B12: target 3 C6U,U22C (mixed)
RNA 1: CACCCGUGCAAAAUUGCAGGGGUCUAAAACGACCUGAAUAUUUCAGAUCAAA
RNA 2: GGGAAUGGAUCCACAUCUACGAAUUCGUUCUUGAUCUGAAAUAUUUAGGUCUGCAGAUCGGAAGAGCACACGU
B13: target 3 insU 3' of 22,insG 3' of 5 (mixed)
RNA 1: CACCCGUGCAAAAUUGCAGGGGUCUAAAACGACCUGAAUAUUUCAGAUCAAA
RNA 2: GGGAAUGGAUCCACAUCUACGAAUUCGUUUUUUGAUCUGAAAUAUUCAGGGUCUGCAGAUCGGAAGAGCACACGU
B14: target 3 insC 3' of 8,insU 3' of 3 (mixed)
RNA 1: CACCCGUGCAAAAUUGCAGGGGUCUAAAACGACCUGAAUAUUUCAGAUCAAA
RNA 2: GGGAAUGGAUCCACAUCUACGAAUUCGUUUUUGAUCUGAAAUAUCUCAGGUUCUGCAGAUCGGAAGAGCACACGU
B15: target 3 U2G,C6G (mixed)
RNA 1: CACCCGUGCAAAAUUGCAGGGGUCUAAAACGACCUGAAUAUUUCAGAUCAAA
RNA 2: GGGAAUGGAUCCACAUCUACGAAUUCGUUUUUGAUCUGAAAUAUUGAGGGCUGCAGAUCGGAAGAGCACACGU
B16: target 3 insC 3' of 11,insC 3' of 2 (mixed)
RNA 1: CACCCGUGCAAAAUUGCAGGGGUCUAAAACGACCUGAAUAUUUCAGAUCAAA
RNA 2: GGGAAUGGAUCCACAUCUACGAAUUCGUUUUUGAUCUGAAACUAUUCAGGUCCUGCAGAUCGGAAGAGCACACGU
B17: target 3 insU 3' of 11,insU 3' of 4 (mixed)
RNA 1: CACCCGUGCAAAAUUGCAGGGGUCUAAAACGACCUGAAUAUUUCAGAUCAAA
RNA 2: GGGAAUGGAUCCACAUCUACGAAUUCGUUUUUGAUCUGAAAUUAUUCAGUGUCUGCAGAUCGGAAGAGCACACGU
B18: target 3 A5G,U21A (mixed)
RNA 1: CACCCGUGCAAAAUUGCAGGGGUCUAAAACGACCUGAAUAUUUCAGAUCAAA
RNA 2: GGGAAUGGAUCCACAUCUACGAAUUCGUUUAUGAUCUGAAAUAUUCGGGUCUGCAGAUCGGAAGAGCACACGU
B19: target 3 insC 3' of 11,insG 3' of 5 (mixed)
RNA 1: CACCCGUGCAAAAUUGCAGGGGUCUAAAACGACCUGAAUAUUUCAGAUCAAA
RNA 2: GGGAAUGGAUCCACAUCUACGAAUUCGUUUUUGAUCUGAAACUAUUCAGGGUCUGCAGAUCGGAAGAGCACACGU
B20: target 3 insC 3' of 9,insU 3' of 6 (mixed)
RNA 1: CACCCGUGCAAAAUUGCAGGGGUCUAAAACGACCUGAAUAUUUCAGAUCAAA
RNA 2: GGGAAUGGAUCCACAUCUACGAAUUCGUUUUUGAUCUGAAAUACUUCUAGGUCUGCAGAUCGGAAGAGCACACGU
B21: target 3 U2A,A12C (mixed)
RNA 1: CACCCGUGCAAAAUUGCAGGGGUCUAAAACGACCUGAAUAUUUCAGAUCAAA
RNA 2: GGGAAUGGAUCCACAUCUACGAAUUCGUUUUUGAUCUGACAUAUUCAGGACUGCAGAUCGGAAGAGCACACGU
B22: target 3 C1G,U2C (mixed)
RNA 1: CACCCGUGCAAAAUUGCAGGGGUCUAAAACGACCUGAAUAUUUCAGAUCAAA
RNA 2: GGGAAUGGAUCCACAUCUACGAAUUCGUUUUUGAUCUGAAAUAUUCAGGCGUGCAGAUCGGAAGAGCACACGU
B23: target 3 insA 3' of 15,insC 3' of 2 (mixed)
RNA 1: CACCCGUGCAAAAUUGCAGGGGUCUAAAACGACCUGAAUAUUUCAGAUCAAA
RNA 2: GGGAAUGGAUCCACAUCUACGAAUUCGUUUUUGAUCUAGAAAUAUUCAGGUCCUGCAGAUCGGAAGAGCACACGU
B24: target 3 insC 3' of 22,insC 3' of 4 (mixed)
RNA 1: CACCCGUGCAAAAUUGCAGGGGUCUAAAACGACCUGAAUAUUUCAGAUCAAA
RNA 2: GGGAAUGGAUCCACAUCUACGAAUUCGUUUCUUGAUCUGAAAUAUUCAGCGUCUGCAGAUCGGAAGAGCACACGU
B25: target 3 G3C,U22A (mixed)
RNA 1: CACCCGUGCAAAAUUGCAGGGGUCUAAAACGACCUGAAUAUUUCAGAUCAAA
RNA 2: GGGAAUGGAUCCACAUCUACGAAUUCGUUAUUGAUCUGAAAUAUUCAGCUCUGCAGAUCGGAAGAGCACACGU
B26: target 3 insC 3' of 9,insU 3' of 4 (mixed)
RNA 1: CACCCGUGCAAAAUUGCAGGGGUCUAAAACGACCUGAAUAUUUCAGAUCAAA
RNA 2: GGGAAUGGAUCCACAUCUACGAAUUCGUUUUUGAUCUGAAAUACUUCAGUGUCUGCAGAUCGGAAGAGCACACGU
B27: target 3 U2A,U21C (mixed)
RNA 1: CACCCGUGCAAAAUUGCAGGGGUCUAAAACGACCUGAAUAUUUCAGAUCAAA
RNA 2: GGGAAUGGAUCCACAUCUACGAAUUCGUUUCUGAUCUGAAAUAUUCAGGACUGCAGAUCGGAAGAGCACACGU

The data set has as its target T1, EsCas13d, nuclease-dead. In words: crRNA (strand 1, pre-loaded); Mg2+; 40 mM Tris-HCl pH 7.5, 150 mM NaCl, 6 mM MgCl2, 1 mM DTT, 0.1% Tween-20, 0.2 mg/ml BSA; 25 C; 10 min per concentration, then washed. Conditions: tags: His6-TwinStrep-SUMO cleaved; N-terminal SNAP kept (SNAP-Surface 488); label: 3' end held by stalled T7 RNA polymerase.
Consider B1, for which the Kd (in general, the concentration at which binding is half-saturated) is 9.6 ± 1 nM.

Molecule B2 registered a Kd of 24.9 ± 2.3 nM.

Turning to B3, the affinity, expressed as Kd, was 11.9 ± 0.5 nM.

B4 registered a Kd of 24.9 ± 1.9 nM.

B5: the dissociation constant Kd was 86.5 ± 13 nM.

Molecule B6 showed a Kd of 48 ± 10 nM.

B7 showed a Kd of approximately 69 nM.

Molecule B8 yielded a Kd of 17.9 ± 1.2 nM.

As to B9, the equilibrium dissociation constant (Kd) came out at 6.45 ± 0.65 nM.

As for B10, the equilibrium dissociation constant (Kd) turned out to be 30.4 ± 3.8 nM.

Molecule B11 had a Kd of 72 ± 9 nM.

The molecule B12 had a dissociation constant (Kd) of 14.5 ± 1.85 nM.

B13 had a dissociation constant Kd of 17.4 ± 1.7 nM.

On to B14, for which binding was characterised by a dissociation constant (Kd) of 59 ± 25.5 nM.

Molecule B15 registered a Kd of 21.8 ± 2.7 nM.

Consider B16, for which the Kd is 67 ± 10 nM.

In turn, B17 returned a Kd of 23.6 ± 4.15 nM.

In turn, B18 came in with a Kd of 98 ± 44.5 nM.

In turn, B19 yielded a dissociation constant (Kd) of 86.5 ± 29 nM.

B20: the equilibrium dissociation constant (Kd) was determined as 82 ± 14.5 nM.

As for B21, binding was put at a Kd of 33 ± 5.5 nM.

As to B22, the affinity, expressed as Kd, was 17.1 ± 3.8 nM.

B23 yielded a Kd of approximately 82 nM.

Consider B24, for which the Kd is 39 ± 12 nM.

For the molecule B25, the Kd was 16.5 ± 1.4 nM.

In turn, B26 had a Kd of 41.5 ± 6 nM.

Consider B27, for which the dissociation constant Kd was determined as 39.5 ± 11 nM.

The values above are taken from paper PMC10786891, “Massively parallel profiling of RNA-targeting CRISPR-Cas13d”.
